The source of these data is the Immune Epitope Database (IEDB).

The target in assay [1] is HLA-A*02:02. Kind of assay: IEDB peptide-MHC binding, purified MHC/competitive/radioactivity; ≥ and ≤ were set here for values at or beyond the usual limits of such assays.
Assay [2] addresses HLA-A*02:01. Described as above.
Assay [3] deals with HLA-A*02:03. The description is as above.
Assay [4] concerns the target HLA-A*02:06. Kind of assay: IEDB peptide-MHC binding, cellular MHC/competitive/fluorescence; ≥ and ≤ were set here for values at or beyond the usual limits of such assays.
Assay [5] concerns the target HLA-A*68:02. Described as above.
Assay [6] addresses HLA-A*68:02. In words: IEDB peptide-MHC binding, purified MHC/competitive/radioactivity; ≥ and ≤ were set here for values at or beyond the usual limits of such assays.
Assay [7] concerns the target HLA-A*02:01. Kind of assay: IEDB peptide-MHC binding, cellular MHC/competitive/fluorescence; ≥ and ≤ were set here for values at or beyond the usual limits of such assays.
[8] abbreviates: source organism: Vaccinia virus WR.
The mark [9] stands for this setting: source organism: Influenza A virus.
[10] abbreviates: source organism: Mammarenavirus lassaense.

With LLEMKYALI, the IC50 turned out to be 354 nM in assay [1] (setting [8]); 2540 nM in assay [2] (setting [8]); 135 nM in assay [3] (setting [8]); 14900 nM in assay [4] (setting [8]); 35800 nM in assay [5] (setting [8]).

Regarding LLENKSLTIL, the half-maximal inhibitory concentration (IC50) in assay [1] (setting [8]) turned out to be 185 nM; in assay [2] (setting [8]), 1150 nM; in assay [3] (setting [8]), 541 nM; in assay [4] (setting [8]), 7430 nM; in assay [5] (setting [8]), 21300 nM.

Regarding LLFLVLIMLI, the IC50 in assay [1] (source organism: SARS-CoV1) was 447 nM; in assay [2] (source organism: SARS-CoV1) it was 592 nM; in assay [3] (source organism: SARS-CoV1), 3150 nM; in assay [4] (source organism: SARS-CoV1), 8300 nM; in assay [5] (source organism: SARS-CoV1), 5100 nM.

Take LMELPVKTDI: the 50% inhibitory concentration (IC50) in assay [1] (setting [8]) is 1510 nM; in assay [2] (setting [8]) it was 1330 nM; in assay [3] (setting [8]), 986 nM; in assay [4] (setting [8]), 12900 nM; in assay [5] (setting [8]), not below 70000 nM.

Consider MAFILGIIIT, for which the IC50 in assay [1] (setting [8]) came to 4680 nM; in assay [2] (setting [8]) it was 663 nM; in assay [3] (setting [8]), 2830 nM; in assay [4] (setting [8]), 10300 nM; in assay [5] (setting [8]) it was 5160 nM.

As for NLRCHSAHV, the IC50 in assay [1] (setting [8]) turned out to be 384 nM; in assay [2] (setting [8]), 3060 nM; in assay [3] (setting [8]) it was 11 nM; in assay [4] (setting [8]) it was 8030 nM; in assay [5] (setting [8]), 8200 nM.

Take NLVQYRILPM: the half-maximal inhibitory concentration (IC50) in assay [1] (setting [8]) was 3990 nM; in assay [2] (setting [8]), 1440 nM; in assay [3] (setting [8]) it was 1330 nM; in assay [4] (setting [8]), 24500 nM; in assay [5] (setting [8]) it was not below 70000 nM.

With NLYNIRNL, the IC50 in assay [1] (setting [9]) was determined as 1330 nM; in assay [2] (setting [9]), 1340 nM; in assay [3] (setting [9]) it was 187 nM; in assay [4] (setting [9]) it was 50800 nM; in assay [5] (setting [9]), 15300 nM.

With QILDNAAKYV, the IC50 in assay [1] (setting [8]) was determined as 3930 nM; in assay [2] (setting [8]), 3480 nM; in assay [3] (setting [8]), 3870 nM; in assay [4] (setting [8]) it was 11400 nM; in assay [5] (setting [8]), 35800 nM.

Regarding QLSNNKYVL, the IC50 was 79 nM in assay [1] (setting [8]); 1810 nM in assay [2] (setting [8]); 4940 nM in assay [3] (setting [8]); 10700 nM in assay [4] (setting [8]); 12500 nM in assay [5] (setting [8]).

On to RAMAWTVVNSI, for which the IC50 in assay [1] (setting [9]) amounted to 74 nM; in assay [2] (setting [9]), 624 nM; in assay [3] (setting [9]), 66 nM; in assay [4] (setting [9]), 8060 nM; in assay [5] (setting [9]) it was 7510 nM.

Consider RLNKRSYLI, for which the IC50 in assay [1] (setting [9]) was 23 nM; in assay [3] (setting [9]), 146 nM; in assay [4] (setting [9]) it was 18500 nM; in assay [5] (setting [9]), 42600 nM.

Regarding RLRYNLCKYL, the 50% inhibitory concentration (IC50) was 261 nM in assay [1] (setting [8]); 3250 nM in assay [2] (setting [8]); 0.3 nM in assay [3] (setting [8]); 15700 nM in assay [4] (setting [8]); 19200 nM in assay [5] (setting [8]).

For the sequence RLYNSLKRFT, the IC50 in assay [1] (setting [8]) worked out at 1060 nM; in assay [2] (setting [8]), 873 nM; in assay [3] (setting [8]) it was 444 nM; in assay [4] (setting [8]) it was 7280 nM; in assay [5] (setting [8]), 14600 nM.

Take RMGAVTTEV: the IC50 in assay [1] (setting [9]) is 90 nM; in assay [2] (setting [9]) it was 222 nM; in assay [3] (setting [9]), 73 nM; in assay [4] (setting [9]), 5520 nM; in assay [5] (setting [9]), 27100 nM.

Regarding SLALKNSQA, the IC50 in assay [1] (setting [8]) came out at 662 nM; in assay [2] (setting [8]) it was 2490 nM; in assay [3] (setting [8]) it was 459 nM; in assay [4] (setting [8]), 19000 nM; in assay [5] (setting [8]), 29600 nM.

Take SLKRFTHTTA: the concentration for half-maximal inhibition (IC50) was determined as 884 nM in assay [1] (setting [8]); 4540 nM in assay [2] (setting [8]); 726 nM in assay [3] (setting [8]); 7310 nM in assay [4] (setting [8]); 6080 nM in assay [5] (setting [8]).

Consider SMKGENVFI, for which the IC50 in assay [1] (setting [8]) came to 5.5 nM; in assay [2] (setting [8]), 611 nM; in assay [3] (setting [8]), 19 nM; in assay [4] (setting [8]), 13700 nM; in assay [5] (setting [8]), 9340 nM.

As to VLQQNNSFI, the IC50 in assay [1] (setting [8]) turned out to be 100 nM; in assay [2] (setting [8]), 234 nM; in assay [3] (setting [8]), 249 nM; in assay [4] (setting [8]), 8680 nM; in assay [5] (setting [8]), 16300 nM.

For the sequence VLQQNNSFII, the IC50 in assay [1] (setting [8]) turned out to be 665 nM; in assay [2] (setting [8]), 709 nM; in assay [3] (setting [8]) it was 1030 nM; in assay [4] (setting [8]), 9640 nM; in assay [5] (setting [8]), 16600 nM.

Turning to VTSPLTGNNT, the IC50 in assay [1] (setting [8]) stood at 1450 nM; in assay [3] (setting [8]), 2500 nM; in assay [6] (setting [8]), 510 nM; in assay [7] (setting [8]) it was 39500 nM; in assay [4] (setting [8]) it was 5130 nM.

For YCSNIKLQVV, the IC50 in assay [1] (setting [10]) is 1240 nM; in assay [3] (setting [10]), 802 nM; in assay [6] (setting [10]), 1170 nM; in assay [7] (setting [10]), 8600 nM; in assay [4] (setting [10]), 7130 nM.

Consider YTKHSMLTNA, for which the IC50 in assay [1] (setting [8]) amounted to 3900 nM; in assay [3] (setting [8]), 141 nM; in assay [6] (setting [8]) it was 1420 nM; in assay [7] (setting [8]) it was 38300 nM; in assay [4] (setting [8]), 7340 nM.

For orientation: IC50 means the concentration needed to halve the response being measured.
